Assay results published in patent publication US20060234944A1 (OKLAHOMA MEDICAL RESEACH FOUNDATION, published 2006).
Blank lines part the entries; values can stand above or below the binder they belong to. Where no end group is shown, it is not given here. resin bead = not defined here; resin = not defined here

Experiments:
[1] = target: T1, memapsin 1 (auto-catalytically activated promemapsin 1-T1; amino acid residues 58-461 of SEQ ID NO: 4) (Homo sapiens (Human), UniProt Q9Y5Z0 63-466); assay: on-bead combinatorial inhibitor library probed with memapsin 1, antibody/alkaline phosphatase staining
T1 construct: also called Mep1; M1
T1 sequence: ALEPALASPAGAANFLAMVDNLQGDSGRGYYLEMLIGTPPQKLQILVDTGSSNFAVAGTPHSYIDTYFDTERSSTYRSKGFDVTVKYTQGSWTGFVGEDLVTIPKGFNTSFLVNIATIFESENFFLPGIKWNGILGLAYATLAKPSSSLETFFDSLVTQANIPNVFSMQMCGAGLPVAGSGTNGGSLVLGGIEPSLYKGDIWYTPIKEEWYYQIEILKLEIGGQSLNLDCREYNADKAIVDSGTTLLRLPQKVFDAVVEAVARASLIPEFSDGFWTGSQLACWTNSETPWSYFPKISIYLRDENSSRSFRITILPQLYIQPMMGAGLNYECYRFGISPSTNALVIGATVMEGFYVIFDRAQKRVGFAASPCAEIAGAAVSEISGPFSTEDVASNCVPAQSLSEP

[2] = target: T2, memapsin 2 (spontaneously activated promemapsin 2-T1; amino acids 43-456 and 45-456 of SEQ ID NO: 8) (human, UniProt P56817 41-454); assay: on-bead combinatorial inhibitor library probed with 4 nM memapsin 2, OM99-2 wash, antibody/alkaline phosphatase staining
T2 construct: The library probing says only 'recombinant memapsin 2'; also called BACE; ASP2
T2 sequence (P56817 41-454): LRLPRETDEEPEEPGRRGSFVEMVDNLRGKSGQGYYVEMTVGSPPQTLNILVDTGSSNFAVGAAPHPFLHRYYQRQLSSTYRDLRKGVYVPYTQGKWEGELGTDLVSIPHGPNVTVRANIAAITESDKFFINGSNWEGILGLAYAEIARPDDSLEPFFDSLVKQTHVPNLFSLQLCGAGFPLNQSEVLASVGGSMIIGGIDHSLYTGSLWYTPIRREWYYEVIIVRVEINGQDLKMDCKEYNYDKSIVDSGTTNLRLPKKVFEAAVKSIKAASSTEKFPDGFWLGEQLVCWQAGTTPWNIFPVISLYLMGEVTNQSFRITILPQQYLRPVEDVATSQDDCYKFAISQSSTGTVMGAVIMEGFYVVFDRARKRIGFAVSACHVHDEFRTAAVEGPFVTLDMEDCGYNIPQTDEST

[3] = target: T2, memapsin 2 (spontaneously activated …); assay: co-crystal structure
[4] = target: T2, memapsin 2 (spontaneously activated …); assay: on-bead combinatorial inhibitor library, antibody/alkaline phosphatase staining
[5] = target: T2, memapsin 2 (spontaneously activated …); assay: enzyme inhibition kinetics
[6] = target: T1, memapsin 1 (auto-catalytically …); assay: inhibition of FS-2 fluorogenic substrate cleavage
[7] = target: T1, memapsin 1 (auto-catalytically …); assay: ratio of Ki apparent for memapsin 1 to Ki apparent for memapsin 2
[8] = target: T2, memapsin 2 (spontaneously activated …); assay: inhibition of FS-2 fluorogenic substrate cleavage; paragraph 177 calls the same value Ki

- binding result [1]: binds
B1: library bead inhibitor Gly-Ile-Phe-Leu*Ala-Val-Glu-Phe-Arg-Met-Gly-Gly-resin (peptide)
peptide: GIFLAVEFRMGG-resin
modifications: reading uncertain; also: hydroxyethylene isostere between Leu4 and Ala5, printed as Gly-Ile-Phe-Leu*Ala-Val-Glu-Phe-Arg-Met-Gly-Gly-resin

- binding result [2]: binds
B2: library bead inhibitor Gly-Leu-Asp-Leu*Ala-Val-Glu-Phe-Arg-Met-Gly-Gly-resin (peptide)
peptide: GLDLAVEFRMGG-resin
modifications: reading uncertain; also: hydroxyethylene isostere between Leu4 and Ala5, printed as Gly-Leu-Asp-Leu*Ala-Val-Glu-Phe-Arg-Met-Gly-Gly-resin

- binding result [2]: binds
B3: library bead inhibitor Gly-Leu-Glu-Leu*Ala-Val-Glu-Phe-Arg-Met-Gly-Gly-resin (peptide)
peptide: GLELAVEFRMGG-resin
modifications: reading uncertain; also: hydroxyethylene isostere between Leu4 and Ala5, printed as Gly-Leu-Glu-Leu*Ala-Val-Glu-Phe-Arg-Met-Gly-Gly-resin

- binding result [2]: binds
B4: library bead inhibitor Gly-Leu-Asp-Leu*Ala-Val-Gln-Phe-Arg-Met-Gly-Gly-resin (peptide)
peptide: GLDLAVQFRMGG-resin
modifications: reading uncertain; also: hydroxyethylene isostere between Leu4 and Ala5, printed as Gly-Leu-Asp-Leu*Ala-Val-Gln-Phe-Arg-Met-Gly-Gly-resin

- binding result [2]: binds
B5: library bead inhibitor Gly-Leu-Phe-Leu*Ala-Val-Glu-Phe-Arg-Met-Gly-Gly-resin (peptide)
peptide: GLFLAVEFRMGG-resin
modifications: reading uncertain; also: hydroxyethylene isostere between Leu4 and Ala5, printed as Gly-Leu-Phe-Leu*Ala-Val-Glu-Phe-Arg-Met-Gly-Gly-resin

- binding result [1]: binds
B6: library bead inhibitor Gly-Leu-Asp-Leu*Ala-Val-Trp-Phe-Arg-Met-Gly-Gly-resin (peptide)
peptide: GLDLAVWFRMGG-resin
modifications: reading uncertain; also: hydroxyethylene isostere between Leu4 and Ala5, printed as Gly-Leu-Asp-Leu*Ala-Val-Trp-Phe-Arg-Met-Gly-Gly-resin

- binding result [1]: binds
B7: library bead inhibitor Gly-Leu-Asp-Leu*Ala-Val-Met-Phe-Arg-Met-Gly-Gly-resin (peptide)
peptide: GLDLAVMFRMGG-resin
modifications: reading uncertain; also: hydroxyethylene isostere between Leu4 and Ala5, printed as Gly-Leu-Asp-Leu*Ala-Val-Met-Phe-Arg-Met-Gly-Gly-resin

- binding result [1]: binds
B8: library bead inhibitor Gly-Leu-Asp-Leu*Ala-Val-Leu-Phe-Arg-Met-Gly-Gly-resin (peptide)
peptide: GLDLAVLFRMGG-resin
modifications: reading uncertain; also: hydroxyethylene isostere between Leu4 and Ala5, printed as Gly-Leu-Asp-Leu*Ala-Val-Leu-Phe-Arg-Met-Gly-Gly-resin

- binding result [1]: binds
B9: library bead inhibitor Gly-Leu-Asp-Leu*Ala-Val-Lys-Phe-Arg-Met-Gly-Gly-resin (peptide)
peptide: GLDLAVKFRMGG-resin
modifications: reading uncertain; also: hydroxyethylene isostere between Leu4 and Ala5, printed as Gly-Leu-Asp-Leu*Ala-Val-Lys-Phe-Arg-Met-Gly-Gly-resin

- binding result [1]: binds
B10: library bead inhibitor Gly-Leu-Asp-Leu*Ala-Val-Thr-Phe-Arg-Met-Gly-Gly-resin (peptide)
peptide: GLDLAVTFRMGG-resin
modifications: reading uncertain; also: hydroxyethylene isostere between Leu4 and Ala5, printed as Gly-Leu-Asp-Leu*Ala-Val-Thr-Phe-Arg-Met-Gly-Gly-resin

- binding result [1]: binds
- binding result [2]: binds
B11: library bead inhibitor Gly-Leu-Glu-Leu*Ala-Val-Gln-Phe-Arg-Met-Gly-Gly-resin (peptide)
peptide: GLELAVQFRMGG-resin
modifications: reading uncertain; also: hydroxyethylene isostere between Leu4 and Ala5, printed as Gly-Leu-Glu-Leu*Ala-Val-Gln-Phe-Arg-Met-Gly-Gly-resin

- binding result [1]: binds
B12: library bead inhibitor Gly-Leu-Glu-Leu*Ala-Val-Trp-Phe-Arg-Met-Gly-Gly-resin (peptide)
peptide: GLELAVWFRMGG-resin
modifications: reading uncertain; also: hydroxyethylene isostere between Leu4 and Ala5, printed as Gly-Leu-Glu-Leu*Ala-Val-Trp-Phe-Arg-Met-Gly-Gly-resin

- binding result [1]: binds
B13: library bead inhibitor Gly-Ile-Asp-Leu*Ala-Val-Val-Phe-Arg-Met-Gly-Gly-resin (peptide)
peptide: GIDLAVVFRMGG-resin
modifications: reading uncertain; also: hydroxyethylene isostere between Leu4 and Ala5, printed as Gly-Ile-Asp-Leu*Ala-Val-Val-Phe-Arg-Met-Gly-Gly-resin

- binding result [1]: binds
B14: library bead inhibitor Gly-Ile-Asp-Leu*Ala-Val-Asn-Phe-Arg-Met-Gly-Gly-resin (peptide)
peptide: GIDLAVNFRMGG-resin
modifications: reading uncertain; also: hydroxyethylene isostere between Leu4 and Ala5, printed as Gly-Ile-Asp-Leu*Ala-Val-Asn-Phe-Arg-Met-Gly-Gly-resin

- binding result [3]: binds
B15: OM99-2 (EVNL*AAEF) (peptide)
peptide: EVNXXAEF
modifications: hydroxyethylene transition-state isostere (*) in place of the peptide bond between Leu4 (P1) and Ala5 (P1′)
notes: also called EVNLΨAAEF

- binding result [1]: binds
B16: library bead inhibitor Gly-Leu-Asn-Leu*Ala-Val-Glu-Phe-Arg-Met-Gly-Gly-resin (peptide)
peptide: GLNLAVEFRMGG-resin
modifications: reading uncertain; also: hydroxyethylene isostere between Leu4 and Ala5, printed as Gly-Leu-Asn-Leu*Ala-Val-Glu-Phe-Arg-Met-Gly-Gly-resin

- binding result [4]: no binding (tested: 4 nM memapsin 2)
B17: library bead Neg1: Gly-Phe-Met-Leu*Ala-Asn-Arg-Phe-Arg-Met-Gly-Gly-resin (peptide)
peptide: GFMLANRFRMGG-resin
modifications: reading uncertain; also: hydroxyethylene isostere between Leu4 and Ala5, printed as Gly-Phe-Met-Leu*Ala-Asn-Arg-Phe-Arg-Met-Gly-Gly-resin
notes: Randomly selected negative control bead

- binding result [1]: binds
B18: library bead inhibitor Gly-Leu-Gln-Leu*Ala-Val-Ile-Phe-Arg-Met-Gly-Gly-resin (peptide)
peptide: GLQLAVIFRMGG-resin
modifications: reading uncertain; also: hydroxyethylene isostere between Leu4 and Ala5, printed as Gly-Leu-Gln-Leu*Ala-Val-Ile-Phe-Arg-Met-Gly-Gly-resin

- Ki [5]: 300 pM
- fold improvement of Ki over OM99-2 [5]: 5.2 fold
- fold lower Ki than OM99-2 [5]: ~5 fold
- Ki apparent [6]: 180 pM
- Ki apparent (M1/M2) [7]: 0.59
- Ki apparent [8]: 310 pM
B19: OM00-3 (ELDL*AVEF) (peptide)
peptide: ELDLAVEF
modifications: also: hydroxyethylene isostere in place of Leu4-Ala5 peptide bond

- binding result [1]: binds
B20: library bead inhibitor Gly-Ile-Asn-Leu*Ala-Val-Leu-Phe-Arg-Met-Gly-Gly-resin (peptide)
peptide: GINLAVLFRMGG-resin
modifications: reading uncertain; also: hydroxyethylene isostere between Leu4 and Ala5, printed as Gly-Ile-Asn-Leu*Ala-Val-Leu-Phe-Arg-Met-Gly-Gly-resin

- binding result [2]: binds
B21: library bead inhibitor Gly-Ile-Asp-Leu*Ala-Val-Tyr-Phe-Arg-Met-Gly-Gly-resin (peptide)
peptide: GIDLAVYFRMGG-resin
modifications: reading uncertain; also: hydroxyethylene isostere between Leu4 and Ala5, printed as Gly-Ile-Asp-Leu*Ala-Val-Tyr-Phe-Arg-Met-Gly-Gly-resin

- binding result [4]: no binding (tested: 4 nM memapsin 2)
B22: library bead Neg2: Gly-Asp-Phe-Leu*Ala-(not printed)-Ser-Phe-Arg-Met-Gly-Gly-resin (peptide)
peptide: GDFLAXSFRMGG-{resin bead}
modifications: not fully specified; X: residue not identified in the source; also: hydroxyethylene isostere between Leu4 and Ala5
notes: as for B17
